Laboratory results taken from paper PMC7618180.

How the values were obtained:
human UBR4 (human) = human UBR4 (human) (UniProt Q5T4S7); assay: mass photometry; isolated human UBR4/KCMF1/CALM1 complex, co-expressed in insect cells and purified via a tag on UBR4
[1] = biological target: C. elegans UBR4 (C. elegans); assay: not stated; molecular weight of the purified C. elegans UBR4 complex (Fig. S13A)

Chain of human UBR4, Q5T4S7 1-5183 (enzyme) (Q5T4S7 whole entry): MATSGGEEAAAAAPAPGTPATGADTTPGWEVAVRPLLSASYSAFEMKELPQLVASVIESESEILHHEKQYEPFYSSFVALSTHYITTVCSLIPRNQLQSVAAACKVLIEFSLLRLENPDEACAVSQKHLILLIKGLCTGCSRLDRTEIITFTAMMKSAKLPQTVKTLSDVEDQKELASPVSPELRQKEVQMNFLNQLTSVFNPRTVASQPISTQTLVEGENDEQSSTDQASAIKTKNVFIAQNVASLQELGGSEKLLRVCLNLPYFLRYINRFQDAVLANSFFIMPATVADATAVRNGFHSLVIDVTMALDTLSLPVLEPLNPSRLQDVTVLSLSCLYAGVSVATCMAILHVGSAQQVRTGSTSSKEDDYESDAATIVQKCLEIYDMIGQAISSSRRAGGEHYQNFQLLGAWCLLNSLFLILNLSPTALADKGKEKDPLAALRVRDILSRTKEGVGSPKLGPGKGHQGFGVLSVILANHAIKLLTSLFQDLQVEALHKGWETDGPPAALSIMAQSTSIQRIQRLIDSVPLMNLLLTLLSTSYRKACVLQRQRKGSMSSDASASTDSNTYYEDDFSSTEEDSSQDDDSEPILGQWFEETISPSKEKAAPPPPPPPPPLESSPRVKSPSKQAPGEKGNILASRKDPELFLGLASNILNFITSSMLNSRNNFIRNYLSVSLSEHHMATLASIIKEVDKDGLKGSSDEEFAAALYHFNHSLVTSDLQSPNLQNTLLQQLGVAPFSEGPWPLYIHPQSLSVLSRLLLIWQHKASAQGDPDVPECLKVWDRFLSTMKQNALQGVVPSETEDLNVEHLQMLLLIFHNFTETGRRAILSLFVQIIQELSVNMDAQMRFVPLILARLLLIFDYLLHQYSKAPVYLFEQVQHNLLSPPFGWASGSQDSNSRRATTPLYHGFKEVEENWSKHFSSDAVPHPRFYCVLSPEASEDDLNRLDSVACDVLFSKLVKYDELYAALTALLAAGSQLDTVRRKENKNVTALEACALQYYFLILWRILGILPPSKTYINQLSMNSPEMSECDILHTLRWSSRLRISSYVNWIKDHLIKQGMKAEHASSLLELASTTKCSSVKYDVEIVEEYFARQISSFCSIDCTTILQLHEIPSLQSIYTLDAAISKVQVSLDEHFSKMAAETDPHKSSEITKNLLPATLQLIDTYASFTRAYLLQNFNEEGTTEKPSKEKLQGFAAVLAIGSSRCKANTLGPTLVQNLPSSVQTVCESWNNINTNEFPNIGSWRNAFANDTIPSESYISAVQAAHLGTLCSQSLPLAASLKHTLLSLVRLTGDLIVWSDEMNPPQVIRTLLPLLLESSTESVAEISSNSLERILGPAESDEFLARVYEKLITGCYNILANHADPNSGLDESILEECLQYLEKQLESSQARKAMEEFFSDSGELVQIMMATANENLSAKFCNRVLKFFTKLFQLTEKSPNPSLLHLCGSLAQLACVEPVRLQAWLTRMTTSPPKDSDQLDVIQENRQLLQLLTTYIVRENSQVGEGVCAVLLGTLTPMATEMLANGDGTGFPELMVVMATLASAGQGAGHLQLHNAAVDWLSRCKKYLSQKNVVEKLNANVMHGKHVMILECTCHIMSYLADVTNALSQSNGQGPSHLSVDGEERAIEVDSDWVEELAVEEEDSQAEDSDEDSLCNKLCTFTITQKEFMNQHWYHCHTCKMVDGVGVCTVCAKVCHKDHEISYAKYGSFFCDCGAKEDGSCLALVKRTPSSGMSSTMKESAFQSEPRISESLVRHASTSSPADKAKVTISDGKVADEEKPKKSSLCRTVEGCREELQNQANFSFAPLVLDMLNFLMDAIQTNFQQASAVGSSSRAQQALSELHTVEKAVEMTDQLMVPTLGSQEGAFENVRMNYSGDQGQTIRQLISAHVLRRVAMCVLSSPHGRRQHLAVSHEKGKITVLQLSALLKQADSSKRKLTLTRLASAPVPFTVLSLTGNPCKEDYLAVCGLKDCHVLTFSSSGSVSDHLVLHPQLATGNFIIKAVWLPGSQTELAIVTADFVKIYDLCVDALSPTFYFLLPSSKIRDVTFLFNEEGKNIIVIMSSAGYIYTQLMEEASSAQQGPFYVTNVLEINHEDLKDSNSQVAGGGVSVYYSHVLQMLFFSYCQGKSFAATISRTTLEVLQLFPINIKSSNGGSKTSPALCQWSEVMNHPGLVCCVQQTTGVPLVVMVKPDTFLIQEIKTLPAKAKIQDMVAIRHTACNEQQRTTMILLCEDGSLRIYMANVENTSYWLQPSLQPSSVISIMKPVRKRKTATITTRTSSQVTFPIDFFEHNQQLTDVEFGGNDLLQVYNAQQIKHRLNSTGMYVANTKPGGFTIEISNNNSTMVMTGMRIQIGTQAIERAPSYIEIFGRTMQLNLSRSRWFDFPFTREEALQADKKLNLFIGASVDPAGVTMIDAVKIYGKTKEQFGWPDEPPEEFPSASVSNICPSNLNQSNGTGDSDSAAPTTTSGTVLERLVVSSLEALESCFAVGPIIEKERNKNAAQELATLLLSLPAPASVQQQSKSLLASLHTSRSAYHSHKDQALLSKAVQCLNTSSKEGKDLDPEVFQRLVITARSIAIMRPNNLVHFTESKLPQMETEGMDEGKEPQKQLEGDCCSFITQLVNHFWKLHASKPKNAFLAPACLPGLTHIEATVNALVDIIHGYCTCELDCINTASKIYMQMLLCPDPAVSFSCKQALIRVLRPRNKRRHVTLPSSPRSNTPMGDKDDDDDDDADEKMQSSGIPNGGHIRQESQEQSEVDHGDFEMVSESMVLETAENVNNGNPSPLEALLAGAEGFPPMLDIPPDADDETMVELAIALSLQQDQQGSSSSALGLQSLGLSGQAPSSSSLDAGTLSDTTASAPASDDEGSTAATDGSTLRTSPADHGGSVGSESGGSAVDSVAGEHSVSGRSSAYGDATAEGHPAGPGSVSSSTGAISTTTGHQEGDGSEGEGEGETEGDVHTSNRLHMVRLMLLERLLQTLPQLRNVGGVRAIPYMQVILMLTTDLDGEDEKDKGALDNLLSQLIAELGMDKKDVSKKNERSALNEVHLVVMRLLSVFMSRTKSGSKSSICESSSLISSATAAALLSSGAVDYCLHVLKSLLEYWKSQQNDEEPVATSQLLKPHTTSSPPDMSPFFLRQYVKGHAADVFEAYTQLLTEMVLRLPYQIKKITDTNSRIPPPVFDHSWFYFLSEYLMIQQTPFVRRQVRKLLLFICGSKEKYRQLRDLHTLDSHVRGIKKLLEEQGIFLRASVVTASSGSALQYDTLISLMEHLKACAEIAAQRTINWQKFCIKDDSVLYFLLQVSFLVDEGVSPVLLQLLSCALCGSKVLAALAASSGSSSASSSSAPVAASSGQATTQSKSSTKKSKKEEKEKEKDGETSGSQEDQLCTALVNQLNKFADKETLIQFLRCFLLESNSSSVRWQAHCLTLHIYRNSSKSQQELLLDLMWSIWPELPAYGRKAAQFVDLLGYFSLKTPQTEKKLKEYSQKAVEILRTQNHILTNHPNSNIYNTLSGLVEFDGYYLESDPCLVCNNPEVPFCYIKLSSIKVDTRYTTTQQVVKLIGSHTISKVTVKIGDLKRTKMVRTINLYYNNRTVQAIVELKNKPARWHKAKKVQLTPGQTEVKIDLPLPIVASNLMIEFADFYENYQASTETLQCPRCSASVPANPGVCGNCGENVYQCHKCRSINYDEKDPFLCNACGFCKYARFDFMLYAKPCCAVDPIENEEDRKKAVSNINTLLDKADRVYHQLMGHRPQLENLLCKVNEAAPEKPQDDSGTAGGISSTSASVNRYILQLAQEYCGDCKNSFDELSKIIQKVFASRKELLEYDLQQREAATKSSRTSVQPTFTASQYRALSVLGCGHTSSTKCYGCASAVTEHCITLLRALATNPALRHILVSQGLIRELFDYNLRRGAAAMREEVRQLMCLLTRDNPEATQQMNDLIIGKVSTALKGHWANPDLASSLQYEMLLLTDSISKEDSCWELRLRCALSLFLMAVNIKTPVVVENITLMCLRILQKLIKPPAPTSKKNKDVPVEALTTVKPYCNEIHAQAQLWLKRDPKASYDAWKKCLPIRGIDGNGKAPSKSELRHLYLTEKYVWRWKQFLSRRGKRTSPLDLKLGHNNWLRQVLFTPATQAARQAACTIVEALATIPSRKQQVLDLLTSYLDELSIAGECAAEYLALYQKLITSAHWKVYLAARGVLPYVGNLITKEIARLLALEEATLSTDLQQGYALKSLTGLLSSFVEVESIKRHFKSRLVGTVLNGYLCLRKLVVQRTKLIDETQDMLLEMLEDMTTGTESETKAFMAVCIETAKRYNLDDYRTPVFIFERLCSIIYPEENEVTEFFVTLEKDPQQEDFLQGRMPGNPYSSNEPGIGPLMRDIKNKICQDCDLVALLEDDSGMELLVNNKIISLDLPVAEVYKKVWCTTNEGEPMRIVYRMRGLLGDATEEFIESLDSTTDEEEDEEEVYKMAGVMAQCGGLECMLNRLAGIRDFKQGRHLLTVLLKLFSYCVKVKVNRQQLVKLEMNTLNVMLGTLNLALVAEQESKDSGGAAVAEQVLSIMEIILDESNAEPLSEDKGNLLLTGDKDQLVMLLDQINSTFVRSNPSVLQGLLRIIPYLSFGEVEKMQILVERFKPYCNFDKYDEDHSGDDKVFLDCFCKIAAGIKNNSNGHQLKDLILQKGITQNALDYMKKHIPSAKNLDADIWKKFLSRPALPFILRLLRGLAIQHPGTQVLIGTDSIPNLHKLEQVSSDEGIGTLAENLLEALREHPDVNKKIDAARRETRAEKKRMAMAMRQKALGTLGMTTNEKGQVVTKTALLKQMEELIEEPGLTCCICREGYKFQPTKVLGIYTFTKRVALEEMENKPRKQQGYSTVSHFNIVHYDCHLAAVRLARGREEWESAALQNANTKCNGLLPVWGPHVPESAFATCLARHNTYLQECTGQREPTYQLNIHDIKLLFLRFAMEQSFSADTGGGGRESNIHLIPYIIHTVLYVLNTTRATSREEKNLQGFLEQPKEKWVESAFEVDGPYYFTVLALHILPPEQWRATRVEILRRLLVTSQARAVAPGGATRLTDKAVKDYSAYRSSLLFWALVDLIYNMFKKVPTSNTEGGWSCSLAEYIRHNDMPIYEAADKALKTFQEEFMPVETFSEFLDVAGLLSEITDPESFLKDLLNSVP

Row | stoichiometry N (human UBR4 (human)) | stoichiometry N [1] | Substance
1 | 2 | – | human UBR4, Q5T4S7 1-5183 (enzyme)
2 | – | 2 | C. elegans UBR4, A0A0S4XR36 1-4218
